The source of these data is patent publication US20170129921A1 (University of California, published 2017).

The target of test [1] is T1, Human C5a receptor 2 (human, UniProt Q9P296 1-337).
T1 construct: whole, on cells; also used here for native C5a2 on human monocyte derived macrophages and for the human C5a2 of the DiscoveRx PathHunter kit; also called C5a2; C5L2
Put plainly: 125I-C5a displacement, SPA on Flp-In CHO-C5a2 membranes. The protocol: P32 and P59 were previously shown to have no activity (either as an agonist or antagonist) up to a concentration of 100 μM, when the library was previously screened for activity at C3aR and C5a1²⁷.
(§1) C5a2 receptor binding studies were performed using a modification of a previously described scintillation proximity assay (SPA) method⁴⁸. Briefly, C5a2 SPA studies were performed in 96-well white isoplates with clear flat bottoms (Perkin Elmer, Waltham, Mass., USA). SPA beads (200 μg/well) were added, following the addition of various concentrations of competing ligands or buffer (6 pM to 500 μM) in a total volume of 80 μL of assay buffer (50 mM Tris-HCl, pH 7.4, 0.5% BSA, 5 mM MgCl₂, 1 mM CaCl₂). ¹²⁵I-C5a (˜20 pM) (specific activity, 2200 Ci mmol⁻¹) (Perkin Elmer) was added to C5a2 membrane preparations (˜2 μg/well). The final reaction volume per well comprised 20 μL of ligand/buffer, 20 μL of SPA beads, 20 μl of membrane and the assay was initiated by the addition of 20 μL of ¹²⁵I-C5a. The plate was then sealed using TopSeal-A (Perkin Elmer) sealing film and incubated with shaking for 1 h at room temperature. Radioligand binding was then assessed for 30 s/well using a 1450 Microbeta scintillation counter (Perkin Elmer).

For test [2], the target named is T2, C5a2-Venus (UniProt Q9P296 1-337). Put plainly: cell-based or functional assay.
Another test deals with T3, C5a receptor 1 (human, UniProt P21730 1-350).
T3 construct: whole, on cells; Also used here for native C5a1 on human macrophages; also called C5a1; CD88
T3 sequence (looked up): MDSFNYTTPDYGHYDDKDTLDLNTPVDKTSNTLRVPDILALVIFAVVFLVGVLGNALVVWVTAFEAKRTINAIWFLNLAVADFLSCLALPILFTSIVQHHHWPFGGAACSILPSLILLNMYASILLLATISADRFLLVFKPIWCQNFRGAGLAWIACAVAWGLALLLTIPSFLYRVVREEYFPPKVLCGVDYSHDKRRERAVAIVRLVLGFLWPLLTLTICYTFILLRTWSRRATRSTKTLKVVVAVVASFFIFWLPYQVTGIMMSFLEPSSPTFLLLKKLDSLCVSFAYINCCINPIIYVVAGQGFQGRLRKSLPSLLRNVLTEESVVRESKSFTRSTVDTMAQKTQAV
Nature of the test: 125I-C5a displacement on C5aR1 membranes.

Test [3] concerns the target T2, C5a2-Venus. Put plainly: cell-based or functional assay. The source holds these as a separate data set.
The target of test [4] is T1, Human C5a receptor 2. Put plainly: 125I-C5a displacement, SPA on Flp-In CHO-C5a2 membranes. The protocol:
To further address this issue, C5a2 SPA was used to test for the binding of C3a or C3a-des arg to C5a2.
as §1
This is another data set of the same source.

Where two headings read alike, the source gives them in different places.

T1 sequence (Q9P296 whole entry): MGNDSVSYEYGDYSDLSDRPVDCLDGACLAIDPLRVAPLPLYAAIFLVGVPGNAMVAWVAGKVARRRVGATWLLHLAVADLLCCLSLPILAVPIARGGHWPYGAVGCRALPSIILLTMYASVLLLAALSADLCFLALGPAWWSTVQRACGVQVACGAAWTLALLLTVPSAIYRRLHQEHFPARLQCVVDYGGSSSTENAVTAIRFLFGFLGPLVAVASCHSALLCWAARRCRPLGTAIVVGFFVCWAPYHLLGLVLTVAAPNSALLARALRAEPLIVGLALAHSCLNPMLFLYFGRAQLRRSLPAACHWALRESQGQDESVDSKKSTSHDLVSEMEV
T2 sequence (Q9P296 whole entry): as above

B1: Peptide P32, Ac-RHYPYWR-OH (peptide)
peptide: Ac-RHYPYWR-OH
notes: Synthetic, computationally designed heptapeptide based on the C-terminus of C5a
B1: the results for the Ki in the test with Human C5a receptor 2 [1] and with C5a receptor 1 were 223 µM and 234 µM, respectively. Further, the “fold higher efficacy of β-arrestin 2 recruitment than the affinity for C5a2” value in the test with C5a2-Venus [2] is around 37 fold. For the same molecule, the “C5a2-β-arrestin 2 BRET Recruitment (% of C5a)” value in the test with C5a2-Venus [3] is 28.8 % of C5a.

B2: Peptide P59, Ac-LIRLWR-OH (peptide)
peptide: Ac-LIRLWR-OH
notes: Synthetic, computationally designed hexapeptide based on the C-terminus of C5a
For B2, the inhibitory constant (Ki) with Human C5a receptor 2 [1] turned out to be 48 µM; in the test with C5a receptor 1, 466 µM. Also, the “fold higher efficacy of β-arrestin 2 recruitment than the affinity for C5a2” value with C5a2-Venus [2] is around 6 fold. Moreover, the “C5a2-β-arrestin 2 BRET Recruitment (% of C5a)” value in the test with C5a2-Venus [3] was 52.9 % of C5a.

B3: Human isolated C5a-des Arg (ligand, UniProt P01031 678-750, looked up)
chain: TLQKKIEEIAAKYKHSVVKKCCYDGACVNNDETCEQRAARISLGPRCIKAFTECCVVASQLRANISHKDMQLG
On to B3, for which, in the test with Human C5a receptor 2 [4], the affinity, expressed as Ki, was 1.5 nM.

B4: Human recombinant C5a (ligand, UniProt P01031 678-751, looked up)
chain: TLQKKIEEIAAKYKHSVVKKCCYDGACVNNDETCEQRAARISLGPRCIKAFTECCVVASQLRANISHKDMQLGR
notes: also called native C5a
As for B4, the Ki with Human C5a receptor 2 [1] amounted to 0.0013 µM. For the same molecule, in the test with C5a2-Venus [3], the “C5a2-β-arrestin 2 BRET Recruitment (% of C5a)” value is 100 % of C5a.

A word on the Ki: it is a dissociation constant, usually derived from enzyme kinetics or from competition with a known ligand.
